Test results: patent US20150361164A1 (EVEC, published 2015)
Where a chain is given by its changes, count along the chain named. Names may count otherwise.

T1: human-derived recombinant HMGB1 (expressed in Sf9 cells) (human, UniProt P09429 1-215, limits assumed)
T1 construct: Purified from baculovirus-infected Sf9 cells on Ni-NTA; also called Sf6-expressed recombinant human HMGB1; Sf6-derived recombinant HMGB1
T1 sequence (looked up): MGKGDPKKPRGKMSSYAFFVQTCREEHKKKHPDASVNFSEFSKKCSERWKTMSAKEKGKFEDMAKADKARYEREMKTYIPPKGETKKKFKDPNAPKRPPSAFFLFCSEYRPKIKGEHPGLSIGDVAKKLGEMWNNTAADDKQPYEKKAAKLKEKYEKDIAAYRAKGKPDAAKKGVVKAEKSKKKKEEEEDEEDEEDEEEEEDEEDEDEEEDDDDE

T2: bovine thymus-derived HMGB1 (bovine, UniProt P10103 2-215)
T2 construct: Bought protein from tissue
T2 sequence (looked up): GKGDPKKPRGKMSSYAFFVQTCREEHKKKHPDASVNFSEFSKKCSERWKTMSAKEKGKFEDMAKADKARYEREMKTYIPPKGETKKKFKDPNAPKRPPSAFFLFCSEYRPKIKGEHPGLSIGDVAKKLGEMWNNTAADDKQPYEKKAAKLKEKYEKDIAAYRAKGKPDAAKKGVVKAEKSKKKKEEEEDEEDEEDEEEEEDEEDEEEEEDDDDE

B1: #10-22 chimeric antibody (antibody, human IgG1, lambda)
heavy: not shown
light: YELIQPPSASVTLGNTVSITCSGDELPKRYAYWYQQKPDKSIVRVIYKDSERPSGISDRFSGSSSGTTATLTIRDTQAEDEADYYCHSTYSDDKLPVFGGGTKLTVLGQPKAAPSVTLFPPSSEELQANKATLVCLISDFYPGAVTVAWKADSSPVKAGVETTTPSKQSNNKYAASSYLSLTPEQWKSHRSYSCQVTHEGSTVEKTVAPTECS
notes: Rat #10-22 variable regions with human IgG1(lambda) constant regions; also called #10-22 chimera
B2: R76S (antibody, human IgG1, lambda, V domains shown)
VH: AVQLVESGGGLVQPKESLKISCAASGFTFSNAAMYWVRQAPGKGLEWVARIRTKPNNYATYYADSVKGRFTISRDDSKSMVYLQMDNLKTEDTAMYYCTAPRRTEGIVSSGVDYWGQGVMVTVSS
VL: YELIQPPSASVTLGNTVSITCSGDELPKRYAYWYQQKPDKSIVRVIYKDSERPSGISDRFSGSSSGTTATLTISDTQAEDEADYYCHSTYSDDKLPVFGGGTKLTVLG
notes: co-expressed with the #10-22 chimeric antibody H chain in CHO-K1 cells; also called #10-22 chimeric antibody (L chain) site substitution variant R76S
B3: E16G (antibody, human IgG1, lambda)
heavy: not shown
light: YELTQPPSVSVSPGQTASITCSGDELPKRYAYWYQQKPGQSIVRVIYKDSERPSGIPERFSGSSSGTTATLTISGTQAEDEADYYCHSTYSDDKLPVFGGGTKLTVLGQPKAAPSVTLFPPSSEELQANKATLVCLISDFYPGAVTVAWKADSSPVKAGVETTTPSKQSNNKYAASSYLSLTPEQWKSHRSYSCQVTHEGSTVEKTVAPTECS
notes: co-expressed with EV007156L in CHO-K1 cells; also called #10-22 chimeric antibody (H chain) site substitution variant E16G; copies: 2 + 2
B4: #10-22 chimeric antibody (H chain) site substitution variant A94R (antibody, human IgG1, lambda, V domains shown)
VH: B2 VH with A100R
VL: YELTQPPSVSVSPGQTASITCSGDELPKRYAYWYQQKPGQSIVRVIYKDSERPSGIPERFSGSSSGTTATLTISGTQAEDEADYYCHSTYSDDKLPVFGGGTKLTVLG
notes: Variant H chain co-expressed with EV007156L in CHO-K1 cells
B5: K15G (antibody, human IgG1, lambda)
heavy: not shown
light: B3 light
notes: co-expressed with EV007156L in CHO-K1 cells; also called #10-22 chimeric antibody (H chain) site substitution variant K15G; copies: 2 + 2
B6: S76N (antibody, human IgG1, lambda, V domains shown)
VH: B2 VH with S79N
VL: B4 VL
notes: co-expressed with EV007156L in CHO-K1 cells; also called #10-22 chimeric antibody (H chain) site substitution variant S76N; copies: 2 + 2
B7: V107T (antibody, human IgG1, lambda)
heavy: not shown
light: B3 light
notes: co-expressed with EV007156L in CHO-K1 cells; also called #10-22 chimeric antibody (H chain) site substitution variant V107T; copies: 2 + 2
B8: M108L (antibody, human IgG1, lambda)
heavy: not shown
light: B3 light
notes: co-expressed with EV007156L in CHO-K1 cells; also called #10-22 chimeric antibody (H chain) site substitution variant M108L; copies: 2 + 2
B9: D77G (antibody, human IgG1, lambda, V domains shown)
VH: B2 VH
VL: B2 VL with S74R, D75G
notes: co-expressed with the #10-22 chimeric antibody H chain in CHO-K1 cells; also called #10-22 chimeric antibody (L chain) site substitution variant D77G
B10: A1E (antibody, human IgG1, lambda)
heavy: not shown
light: B3 light
notes: co-expressed with EV007156L in CHO-K1 cells; also called #10-22 chimeric antibody (H chain) site substitution variant A1E; copies: 2 + 2
B11: D82aN (antibody, human IgG1, lambda, V domains shown)
VH: B2 VH with D86N
VL: B4 VL
notes: co-expressed with EV007156L in CHO-K1 cells; also called #10-22 chimeric antibody (H chain) site substitution variant D82aN; copies: 2 + 2
B12: V78A (antibody, human IgG1, lambda, V domains shown)
VH: B2 VH with V81A
VL: B4 VL
notes: co-expressed with EV007156L in CHO-K1 cells; also called #10-22 chimeric antibody (H chain) site substitution variant V78A; copies: 2 + 2
B13: D60E (antibody, human IgG1, lambda, V domains shown)
VH: B2 VH
VL: B2 VL with D58E, S74R
notes: co-expressed with the #10-22 chimeric antibody H chain in CHO-K1 cells; also called #10-22 chimeric antibody (L chain) site substitution variant D60E
B14: M89V (antibody, human IgG1, lambda, V domains shown)
VH: B2 VH with M95V
VL: B4 VL
notes: co-expressed with EV007156L in CHO-K1 cells; also called #10-22 chimeric antibody (H chain) site substitution variant M89V; copies: 2 + 2
B15: N82bS (antibody, human IgG1, lambda, V domains shown)
VH: B2 VH with N87S
VL: B4 VL
notes: co-expressed with EV007156L in CHO-K1 cells; also called #10-22 chimeric antibody (H chain) site substitution variant N82bS; copies: 2 + 2
B16: I20L (antibody, human IgG1, lambda)
heavy: not shown
light: B3 light
notes: co-expressed with EV007156L in CHO-K1 cells; also called #10-22 chimeric antibody (H chain) site substitution variant I20L; copies: 2 + 2
B17: K42Q (antibody, human IgG1, lambda, V domains shown)
VH: B2 VH
VL: B2 VL with K40Q, S74R
notes: co-expressed with the #10-22 chimeric antibody H chain in CHO-K1 cells; also called #10-22 chimeric antibody (L chain) site substitution variant K42Q
B18: S59P (antibody, human IgG1, lambda, V domains shown)
VH: B2 VH
VL: B2 VL with S57P, S74R
notes: co-expressed with the #10-22 chimeric antibody H chain in CHO-K1 cells; also called #10-22 chimeric antibody (L chain) site substitution variant S59P
B19: D41G (antibody, human IgG1, lambda, V domains shown)
VH: B2 VH
VL: B2 VL with D39G, S74R
notes: co-expressed with the #10-22 chimeric antibody H chain in CHO-K1 cells; also called #10-22 chimeric antibody (L chain) site substitution variant D41G
B20: P41S (antibody, human IgG1, lambda, V domains shown)
VH: B2 VH with P41S
VL: B4 VL
notes: co-expressed with EV007156L in CHO-K1 cells; also called #10-22 chimeric antibody (H chain) site substitution variant P41S; copies: 2 + 2
B21: M77T (antibody, human IgG1, lambda, V domains shown)
VH: B2 VH with M80T
VL: B4 VL
notes: co-expressed with EV007156L in CHO-K1 cells; also called #10-22 chimeric antibody (H chain) site substitution variant M77T; copies: 2 + 2

Assays:
[1] = target: T1, human-derived recombinant HMGB1 …; experiment: competition ELISA, inhibition of HMGB1 binding to immobilized RAGE-Fc
Method: RAGE-Fc (R&D, 250 ng/well) was immobilized overnight at 4° C. on immunoplates (Nunc, Maxisorp) and 5% BSA (bovine serum albumin) was added thereto to block the plates for 2 hours, followed by addition of human monoclonal antibody (Control Ig) to block the plates for 2 hours. HMGB1 (Sf6-derived recombinant HMGB1, final concentration: 2 μg/ml) was mixed with anti-HMGB1 antibody (#10-22 chimera, EV007156 or G4) or non-HMGB1-specific human monoclonal antibody (Control Ig) serving as a negative control antibody at a final concentration of 0, 0.02, 0.2, 2 or 20 μg/ml and incubated for 60 minutes. Subsequently, the reaction solutions were added to the immunoplates and reacted for 2 hours. Then, anti-HMGB1 antibody (Abnova, #H00003146-M08, 1 μg/ml) which had been biotinylated with a Biotin Labeling Kit (Dojindo, LK03) was reacted at room temperature for 1 hour. Finally, HRP-labeled streptavidin was reacted at room temperature for 1 hour. TMB (3,3′,5,5′-tetramethylbenzidine; SureBlue, KPL, #52-00-03) was added and HMGB1 bound to RAGE was detected by absorbance at 450 nm (FIG. 10). #10-22 chimera, EV007156 and G4 were all found to inhibit the binding of HMGB1 to RAGE in a manner dependent on the added antibody concentration.

[2] = target: T2, bovine thymus-derived HMGB1; experiment: ELISA on HMGB1-immobilized immunoplate, antibodies adjusted to an equal concentration; OD as % of #10-22 chimera (source of the HMGB1 not named for this figure)
[3] = target: T2, bovine thymus-derived HMGB1; experiment: ELISA on HMGB1-immobilized immunoplate, antibodies adjusted to an equal concentration; OD as % of EV007156 (L) + #10-22 chimera (H) (source of the HMGB1 not named for this figure)

Binder | binding result [3] | other results
B1 | – | IC50 [1]: 3.04 µg/mL
B2 | – | binding result [2]: binds
B3 | binds | –
B4 | binds | –
B5 | binds | –
B6 | binds | –
B7 | binds | –
B8 | binds | –
B9 | – | binding result [2]: binds
B10 | binds | –
B11 | binds | –
B12 | binds | –
B13 | – | binding result [2]: binds
B14 | binds | –
B15 | binds | –
B16 | binds | –
B17 | – | binding result [2]: binds
B18 | – | binding result [2]: binds
B19 | – | binding result [2]: binds
B20 | binds | –
B21 | binds | –
